Assay results as given in patent US20190030139.

Tests used:
USP10 S76 peptide = system: T1, USP10 S76 peptide
T1 sequence: TLPRTPSYSISST

Substance | initial rate of phosphorylation (in vitro kinase assay, 32P incorporation) (SAMS peptide (Abcam)) [pmol/min/reaction mix] | maximal stoichiometry of phosphorylation (SAMS peptide (Abcam)) [mol/mol] | initial rate of phosphorylation (in vitro kinase assay, 32P incorporation) (USP10 S76 peptide) [pmol/min/reaction mix] | maximal stoichiometry of phosphorylation (USP10 S76 peptide) [mol/mol] | in vitro deubiquitination assay, immunoblot (FIG. 3H) (Ubiquitinated AMPKα2) | in vitro deubiquitination assay, immunoblot (FIG. 4C) (Ubiquitinated AMPKα1)
Purified AMPK (Upstate Biotechnology) | 95±18 | 0.35±0.02 | 155±36 | 0.46±0.04 | – | –
USP10CA (catalytically inactive CA mutant, recombinant) | – | – | – | – | the catalytically inactive CA mutant could not | the catalytically inactive CA mutant could not
